# According to patent US20250018014A1, “METHOD FOR TREATING AND/OR PREVENTING REGNASE-1-RELATED DISEASE” (OSAKA UNIVERSITY, priority 2018, published 2025):
# T1: C-terminal human Regnase-1 (amino acids 301 to 599) with N-terminal FLAG tag and C-terminal BirA recognition … (human, UniProt Q5D1E8 301-599)
# T1 sequence: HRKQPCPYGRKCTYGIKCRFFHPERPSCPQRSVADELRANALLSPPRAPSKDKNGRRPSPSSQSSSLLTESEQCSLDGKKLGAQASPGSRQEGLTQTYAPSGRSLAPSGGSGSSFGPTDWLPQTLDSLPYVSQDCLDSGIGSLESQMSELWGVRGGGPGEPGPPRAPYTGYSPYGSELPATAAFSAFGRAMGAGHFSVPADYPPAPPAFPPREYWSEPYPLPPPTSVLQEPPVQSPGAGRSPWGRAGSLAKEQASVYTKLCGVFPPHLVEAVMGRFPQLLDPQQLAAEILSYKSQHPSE
# T2: full-length human Regnase-1 with a FLAG tag on the N-terminal side and a biotin ligase BirA recognition … (human, UniProt Q5D1E8 1-599, biotinylated at the BirA recognition sequence when required)
# T2 sequence: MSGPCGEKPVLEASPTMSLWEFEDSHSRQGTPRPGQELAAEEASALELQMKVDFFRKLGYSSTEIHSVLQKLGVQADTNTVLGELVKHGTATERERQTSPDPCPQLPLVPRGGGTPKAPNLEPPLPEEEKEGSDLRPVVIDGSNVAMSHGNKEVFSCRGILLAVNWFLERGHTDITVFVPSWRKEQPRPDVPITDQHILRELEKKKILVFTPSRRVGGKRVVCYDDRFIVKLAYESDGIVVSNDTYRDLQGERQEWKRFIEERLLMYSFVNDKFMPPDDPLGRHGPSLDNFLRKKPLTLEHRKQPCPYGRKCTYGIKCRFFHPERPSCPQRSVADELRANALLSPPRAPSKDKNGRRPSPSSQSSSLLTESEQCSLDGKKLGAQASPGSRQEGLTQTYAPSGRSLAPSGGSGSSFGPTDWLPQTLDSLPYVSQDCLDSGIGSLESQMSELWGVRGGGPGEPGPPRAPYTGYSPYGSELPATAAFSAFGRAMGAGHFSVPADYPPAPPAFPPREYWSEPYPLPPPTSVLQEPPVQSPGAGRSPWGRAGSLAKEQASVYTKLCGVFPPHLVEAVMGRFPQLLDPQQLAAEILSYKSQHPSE
# T3: C-terminal domain-deleted human Regnase-1 (amino acids 1 to 546) with N-terminal FLAG tag and C-terminal BirA … (human, UniProt Q5D1E8 1-546)
# T3 sequence: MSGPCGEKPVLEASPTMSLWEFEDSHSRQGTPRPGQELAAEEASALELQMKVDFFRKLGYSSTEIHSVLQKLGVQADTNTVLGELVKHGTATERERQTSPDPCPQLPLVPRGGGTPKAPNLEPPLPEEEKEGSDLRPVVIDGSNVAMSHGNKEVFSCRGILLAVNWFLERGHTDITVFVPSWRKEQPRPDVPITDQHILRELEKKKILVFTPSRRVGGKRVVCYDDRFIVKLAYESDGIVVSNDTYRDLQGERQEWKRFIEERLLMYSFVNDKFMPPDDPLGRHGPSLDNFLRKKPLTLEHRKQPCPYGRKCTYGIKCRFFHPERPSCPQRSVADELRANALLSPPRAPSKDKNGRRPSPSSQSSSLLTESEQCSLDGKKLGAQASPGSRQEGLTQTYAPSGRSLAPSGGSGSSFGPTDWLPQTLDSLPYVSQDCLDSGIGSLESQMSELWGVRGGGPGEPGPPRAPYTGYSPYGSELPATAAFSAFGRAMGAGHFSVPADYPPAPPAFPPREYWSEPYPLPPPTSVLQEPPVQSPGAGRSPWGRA
# Columns and labels:
# Experiment in all cases: cell-based or functional assay
# [1] = molecular target: T1, C-terminal human Regnase-1 (amino acids …)
# [2] = molecular target: T2, full-length human Regnase-1 with a FLAG …
# [3] = molecular target: T3, C-terminal domain-deleted human …
# [4] = molecular target: T1, C-terminal human Regnase-1 (amino acids …); remark: listed apart in the source
# [5] = molecular target: T2, full-length human Regnase-1 with a FLAG …; remark: listed apart in the source
# [6] = molecular target: T3, C-terminal domain-deleted human …; remark: listed apart in the source
Binder,"50% inhibition concentration, Regnase-1 phosphorylation by IKKβ (AlphaScreen) [1] [µM]","50% inhibition concentration, Regnase-1 phosphorylation by IKKβ (AlphaScreen) [2] [µM]","50% inhibition concentration, Regnase-1 phosphorylation by IKKβ (AlphaScreen) [3] [µM]","50% inhibition concentration, Regnase-1 phosphorylation by TBK1 (AlphaScreen) [4] [µM]","50% inhibition concentration, Regnase-1 phosphorylation by TBK1 (AlphaScreen) [5] [µM]","50% inhibition concentration, Regnase-1 phosphorylation by TBK1 (AlphaScreen) [6] [µM]"
"XNSWYINIWGHD (HELM PEPTIDE1{[meA].N.S.W.Y.I.N.I.W.G.H.D.[C1CCN([*:1])C1]}$PEPTIDE1,PEPTIDE1,1:R1-12:R3$$$V2.0; SMILES CC[C@H](C)[C@@H]1NC(=O)[C@H](CC(N)=O)NC(=O)[C@H]([C@@H](C)CC)NC(=O)[C@H](Cc2ccc(O)cc2)NC(=O)[C@H](Cc2c[nH]c3ccccc23)NC(=O)[C@H](CO)NC(=O)[C@H](CC(N)=O)NC(=O)[C@H](C)N(C)C(=O)C[C@@H](C(=O)N2CCCC2)NC(=O)[C@H](Cc2c[nH]cn2)NC(=O)CNC(=O)[C@H](Cc2c[nH]c3ccccc23)NC1=O) [PP15]",22,5.6,31,17.4,8.5,9.5
"XRFRQWKWVYPD (HELM PEPTIDE1{[meA].R.F.R.Q.W.K.W.V.Y.P.D.[C1CCN([*:1])C1]}$PEPTIDE1,PEPTIDE1,1:R1-12:R3$$$V2.0; SMILES CC(C)[C@@H]1NC(=O)[C@H](Cc2c[nH]c3ccccc23)NC(=O)[C@H](CCCCN)NC(=O)[C@H](Cc2c[nH]c3ccccc23)NC(=O)[C@H](CCC(N)=O)NC(=O)[C@H](CCCNC(=N)N)NC(=O)[C@H](Cc2ccccc2)NC(=O)[C@H](CCCNC(=N)N)NC(=O)[C@H](C)N(C)C(=O)C[C@@H](C(=O)N2CCCC2)NC(=O)[C@@H]2CCCN2C(=O)[C@H](Cc2ccc(O)cc2)NC1=O) [PP13]",23.2,3.6,43.2,18,8.4,17.7
"XKFAQFRWIYPD (HELM PEPTIDE1{[meA].K.F.A.Q.F.R.W.I.Y.P.D.[C1CCN([*:1])C1]}$PEPTIDE1,PEPTIDE1,1:R1-12:R3$$$V2.0; SMILES CC[C@H](C)[C@@H]1NC(=O)[C@H](Cc2c[nH]c3ccccc23)NC(=O)[C@H](CCCNC(=N)N)NC(=O)[C@H](Cc2ccccc2)NC(=O)[C@H](CCC(N)=O)NC(=O)[C@H](C)NC(=O)[C@H](Cc2ccccc2)NC(=O)[C@H](CCCCN)NC(=O)[C@H](C)N(C)C(=O)C[C@@H](C(=O)N2CCCC2)NC(=O)[C@@H]2CCCN2C(=O)[C@H](Cc2ccc(O)cc2)NC1=O) [PP11]",> 62.1,22.3,> 62.1,> 62.1,29.1,55.6
"XRFGVWSWIYPD (HELM PEPTIDE1{[meA].R.F.G.V.W.S.W.I.Y.P.D.[C1CCN([*:1])C1]}$PEPTIDE1,PEPTIDE1,1:R1-12:R3$$$V2.0; SMILES CC[C@H](C)[C@@H]1NC(=O)[C@H](Cc2c[nH]c3ccccc23)NC(=O)[C@H](CO)NC(=O)[C@H](Cc2c[nH]c3ccccc23)NC(=O)[C@H](C(C)C)NC(=O)CNC(=O)[C@H](Cc2ccccc2)NC(=O)[C@H](CCCNC(=N)N)NC(=O)[C@H](C)N(C)C(=O)C[C@@H](C(=O)N2CCCC2)NC(=O)[C@@H]2CCCN2C(=O)[C@H](Cc2ccc(O)cc2)NC1=O) [PP14]",6.5,1.6,9,6.8,3.1,5.2
"XNFSNSWYNIWD (HELM PEPTIDE1{[meA].N.F.S.N.S.W.Y.N.I.W.D.[C1CCN([*:1])C1]}$PEPTIDE1,PEPTIDE1,1:R1-12:R3$$$V2.0; SMILES CC[C@H](C)[C@@H]1NC(=O)[C@H](CC(N)=O)NC(=O)[C@H](Cc2ccc(O)cc2)NC(=O)[C@H](Cc2c[nH]c3ccccc23)NC(=O)[C@H](CO)NC(=O)[C@H](CC(N)=O)NC(=O)[C@H](CO)NC(=O)[C@H](Cc2ccccc2)NC(=O)[C@H](CC(N)=O)NC(=O)[C@H](C)N(C)C(=O)C[C@@H](C(=O)N2CCCC2)NC(=O)[C@H](Cc2c[nH]c3ccccc23)NC1=O) [PP16]",42.2,20.6,30.8,> 62.1,52.4,38.1

# Continued, values first:
"50% inhibition concentration, Regnase-1 phosphorylation by IKKβ (AlphaScreen) [1] [µM]","50% inhibition concentration, Regnase-1 phosphorylation by IKKβ (AlphaScreen) [2] [µM]","50% inhibition concentration, Regnase-1 phosphorylation by IKKβ (AlphaScreen) [3] [µM]","50% inhibition concentration, Regnase-1 phosphorylation by TBK1 (AlphaScreen) [4] [µM]","50% inhibition concentration, Regnase-1 phosphorylation by TBK1 (AlphaScreen) [5] [µM]","50% inhibition concentration, Regnase-1 phosphorylation by TBK1 (AlphaScreen) [6] [µM]",Binder
20.7,6.8,27,19.6,12.7,22.5,"XRYAVYQWIYPD (HELM PEPTIDE1{[meA].R.Y.A.V.Y.Q.W.I.Y.P.D.[C1CCN([*:1])C1]}$PEPTIDE1,PEPTIDE1,1:R1-12:R3$$$V2.0; SMILES CC[C@H](C)[C@@H]1NC(=O)[C@H](Cc2c[nH]c3ccccc23)NC(=O)[C@H](CCC(N)=O)NC(=O)[C@H](Cc2ccc(O)cc2)NC(=O)[C@H](C(C)C)NC(=O)[C@H](C)NC(=O)[C@H](Cc2ccc(O)cc2)NC(=O)[C@H](CCCNC(=N)N)NC(=O)[C@H](C)N(C)C(=O)C[C@@H](C(=O)N2CCCC2)NC(=O)[C@@H]2CCCN2C(=O)[C@H](Cc2ccc(O)cc2)NC1=O) [PP12]"
0.7,0.5,0.3,< 0.06,< 0.06,0.3,"XDIWFDYWDWD (HELM PEPTIDE1{[meA].D.I.W.F.D.Y.W.D.W.D.[C1CCN([*:1])C1]}$PEPTIDE1,PEPTIDE1,1:R1-11:R3$$$V2.0; SMILES CC[C@H](C)[C@@H]1NC(=O)[C@H](CC(=O)O)NC(=O)[C@H](C)N(C)C(=O)C[C@@H](C(=O)N2CCCC2)NC(=O)[C@H](Cc2c[nH]c3ccccc23)NC(=O)[C@H](CC(=O)O)NC(=O)[C@H](Cc2c[nH]c3ccccc23)NC(=O)[C@H](Cc2ccc(O)cc2)NC(=O)[C@H](CC(=O)O)NC(=O)[C@H](Cc2ccccc2)NC(=O)[C@H](Cc2c[nH]c3ccccc23)NC1=O) [PP17]"
